Experimental data: patent US20260070974A1 (NONA BIOSCIENCES SUZHOU, published 2026)
“And” between values parts separate entries of the source, which are not always exact repeats. Equal entries are not always repeated.

T1: cynomolgus monkey Siglec-15 on CHO-K1/cynomolgus monkey Siglec-15 cells (cynomolgus monkey, UniProt Q6ZMC9 20-328 (human entry))
T1 chain: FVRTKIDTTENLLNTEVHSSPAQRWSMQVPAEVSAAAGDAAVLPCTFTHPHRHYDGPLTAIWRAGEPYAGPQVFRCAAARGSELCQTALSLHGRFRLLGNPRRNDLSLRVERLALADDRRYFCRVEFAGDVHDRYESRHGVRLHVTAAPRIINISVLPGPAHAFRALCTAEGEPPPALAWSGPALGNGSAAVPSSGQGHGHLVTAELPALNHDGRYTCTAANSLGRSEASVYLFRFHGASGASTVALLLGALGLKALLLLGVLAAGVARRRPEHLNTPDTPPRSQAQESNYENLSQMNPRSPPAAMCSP

T2: human Siglec-2-his protein (Acrobiosystems, Cat CD2-H52H8) (human, UniProt P20273 20-687)
T2 construct: Bought protein; not shown: his tag
T2 sequence (looked up): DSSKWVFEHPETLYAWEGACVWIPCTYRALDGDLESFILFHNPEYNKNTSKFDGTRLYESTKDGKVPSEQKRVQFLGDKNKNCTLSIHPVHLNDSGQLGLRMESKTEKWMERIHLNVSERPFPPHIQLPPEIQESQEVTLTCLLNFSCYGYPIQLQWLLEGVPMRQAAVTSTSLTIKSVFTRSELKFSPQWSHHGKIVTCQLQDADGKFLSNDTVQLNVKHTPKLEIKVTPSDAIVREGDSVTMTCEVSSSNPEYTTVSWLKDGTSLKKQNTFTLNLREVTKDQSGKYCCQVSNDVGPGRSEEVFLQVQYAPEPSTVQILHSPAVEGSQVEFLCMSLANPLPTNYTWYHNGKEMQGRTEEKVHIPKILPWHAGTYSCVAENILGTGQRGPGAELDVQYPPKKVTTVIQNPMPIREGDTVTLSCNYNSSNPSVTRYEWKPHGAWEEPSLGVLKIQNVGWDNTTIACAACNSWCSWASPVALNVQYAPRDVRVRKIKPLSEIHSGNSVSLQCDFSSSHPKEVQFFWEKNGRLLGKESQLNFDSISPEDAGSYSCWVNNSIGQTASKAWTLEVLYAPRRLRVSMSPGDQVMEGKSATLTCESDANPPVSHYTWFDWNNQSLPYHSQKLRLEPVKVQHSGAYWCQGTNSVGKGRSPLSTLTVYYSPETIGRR


Columns and labels:
[1] = target: T1, cynomolgus monkey Siglec-15 on …; assay: flow cytometry on CHO-K1/cynomolgus monkey Siglec-15 cells
Method: cDNAs encoding cynomolgus monkey Siglec-15 (the amino acid sequence of which is set forth in SEQ ID NO: 155) were obtained by gene synthesis and cloned into the expression vector pcDNA3.1, and then the expression vector was transfected into CHO-K1 cells to construct CHO-K1/cynomolgus monkey Siglec-15 cells expressing cynomolgus monkey Siglec-15. CHO-K1/cynomolgus monkey Siglec-15 cells were adjusted to a density of 1×10⁶/mL with PBS, and the cell suspension was added to a 96-well V-bottom plate at 100 µL/well. The 96-well V-bottom plate was centrifuged at 1000 rpm for 5 min and washed once with PBS+2% FBS. The cells were resuspended in 100 μL of antibody diluted in a gradient (5-fold dilution, starting concentration: 500 nM) and incubated at 4° C. for 1 h, and PR300066 and hIgG1 were used as positive control and negative control, respectively. After 1 h, the cells were washed twice with PBS+2% FBS. The cells were incubated with 100 μL of Alexa Fluor 488 goat anti-human IgG (Jackson, Cat #: 109-545-098) at 4° C. for 1 h in the dark and then washed twice with PBS+2% FBS. The cells were then resuspended in 200 μL of PBS+2% FBS. The fluorescence intensity of the cells was analyzed using a BD FACS Canto™ II flow cytometer.

[2] = target: T2, human Siglec-2-his protein …; assay: ELISA on coated human Siglec-2-his, antibody at 100 nM and 10 nM, goat anti-human IgG-HRP, OD450
Method: Human Siglec-15 ECD-his protein (Acrobiosystems, Cat SG5-H52H3), human Siglec-2-his protein (Acrobiosystems, Cat CD2-H52H8), human Siglec-4a-his protein (Acrobiosystems, Cat MAG-H52H8), human Siglec-3-his protein (Acrobiosystems, Cat CD3-H5226), human Siglec-10-his protein (Acrobiosystems, Cat SIO-H52H9), and human PD-L1/B7-H1-his protein (Acrobiosystems, Cat PD1-H5229), each at 1 μg/mL and dissolved in PBS, were each added to an ELISA plate at 100 μL/well for coating and the plate was incubated overnight at 4° C. The ELISA plate was then blocked with PBST (PBS+0.05% Tween 20) containing 2% BSA at 200 μL/well and incubated at 37° C. for 1 h. The ELISA plate was washed 4 times with PBST. The anti-Siglec-15 antibody diluted in a gradient (concentrations: 100 nM and 10 nM) was added to the ELISA plate at 100 μL/well and the plate was incubated at 37° C. for 1 h. The ELISA plate was washed 4 times with PBST. The goat anti-human IgG (H+L)-HRP (1:5000, Jackson, Cat 109-035-088) was added at 100 μL/well and the plate was incubated at 37° C. for 1 h. The ELISA plate was washed 4 times with PBST. The TMB substrate (Biopanda, Cat TMB-S-003) was added at 100 μL/well, and the plate was incubated at room temperature for 5 min, and then the stop buffer (Solarbio, Cat #: C1058) was added at 100 μL/well to stop the reaction.

Row | EC50 [1] | binding result [2] | Maximum (MFI) [1] [MFI] | Binder
1 | 1.5 nM and 2.19 nM | no binding (tested: 100 nM) |  | PR300066 (Tab) (antibody, human IgG1, kappa, V domains shown, variable region from clone 5G12 of WO 2018/057735A1, on human IgG1/kappa constant regions; also called 5G12) VH: QVQLQQPGAELVKPGASVKMSCKASGYTFTSYWITWVIQRPGQGLEWIGDIYCGSDTMHYNEKFKNKATLTVDTSSSTAYMQLSSLTSEDSAVYYCARWWDYGSSYDYFDYWGQGTTLTVSS VL: DIKMTQSPSSMYASLGERVTITCKASQDINSYLSWFQQKPGKSPKTLIYRANRLVDGVPSRFSGSGSGQDYSLTISSLEYEDMGIYYCLQYDEFPYTFGGGTKLEIKR
2 | 1.36 nM | no binding (tested: 100 nM) | 5420 | PR301289 (antibody, human IgG1, kappa, V domains shown, Parent of the PTM variants PR301289-1 and -2) VH: QVQLVQSGAEVKKPGASVKVSCRASGYTFTSYDINWVRQATGQGLEWMGWMNPHSGDTGYAQNFQGRVTMTWNTSISTAYMELSSLRSEDTAVYYCARRRVGVYYYGMDVWGQGTTVTVSS VL: ENVLTQSPGTLSLSPGERATLSCRASQSVSSSYFGWYQQKPGQAPRLLIYGASSRATGIPDRFSGSGSGTDFTLTISRLEPEDFAVYYCQQYGSSPITFGQGTRLEIKR
3 | 0.889 nM | no binding (tested: 100 nM) | 5660 | PR301285 (antibody, human IgG1, kappa, V domains shown) VH: QVQLQESGPGLVKPSETLSLTCTVSGGSMISYYWSWLRQPPGKGLEWIGYIYYSGNTNYNPSLKSRITIAVDTSKNQFSLKLNSVTAADTAVYYCARERELHPYYFDYWGQGTLVTVSS VL: DIQLTQSPSFLSASVGDRVTITCRASQGIDNYLAWYQQKPGKAPKVLIYAASTLQSGVPSRFSGSGSGTEFTLTISSLQPEDFATYYCQQLNSYPLTFGGGTKVEIKR
4 | 3.39 nM | no binding (tested: 100 nM) | 5860 | PR301286 (antibody, human IgG1, kappa, V domains shown, Parent of the PTM variants PR301286-1, -3, -5, -6, -7) VH: QVQLVESGGGVVQPGKSLRLSCAASGFTFSSYGMHWVRQAPGKGLEWVAVIWIDGSNRYYAASVKGRFTISRDNSKNTLYLQMNSLRAEDTAVYYCTRGYGDYAYVMDVWGQGASVTVSS VL: DIVMTQSPLSLPVTPGEPASISCRSSQSLLPGNGYNYLDWYLQKPGQSPQLLIYLGSNRASGVPDRFSGSGSGTDFTLKISRVEAEDVGIYYCMQALQSPLTFGGGTKVEIKR
